Data from article PMC3138748, “A Small Peptide Modeled after the NRAGE Repeat Domain Inhibits XIAP-TAB1-TAK1 Signaling for NF-κB Activation and Apoptosis in P19 Cells” (PLoS ONE, 2011).

Key:
Assay in all cases: FRET or BRET; donor dequenching ECFP:EYFP FRET, confocal; co-transfected 293T cells, fixed with 4% paraformaldehyde 48 h after transfection; no BMP ligand
Settings in all cases: partners not purified
[1] = target: T1, ECFP-XIAP (UniProt Q60989 1-496)
T1 construct: also called C-X; source: 293T, co-transfected, in fixed cells; not shown: ECFP, N-terminal, kept
T1 sequence (Q60989 whole entry): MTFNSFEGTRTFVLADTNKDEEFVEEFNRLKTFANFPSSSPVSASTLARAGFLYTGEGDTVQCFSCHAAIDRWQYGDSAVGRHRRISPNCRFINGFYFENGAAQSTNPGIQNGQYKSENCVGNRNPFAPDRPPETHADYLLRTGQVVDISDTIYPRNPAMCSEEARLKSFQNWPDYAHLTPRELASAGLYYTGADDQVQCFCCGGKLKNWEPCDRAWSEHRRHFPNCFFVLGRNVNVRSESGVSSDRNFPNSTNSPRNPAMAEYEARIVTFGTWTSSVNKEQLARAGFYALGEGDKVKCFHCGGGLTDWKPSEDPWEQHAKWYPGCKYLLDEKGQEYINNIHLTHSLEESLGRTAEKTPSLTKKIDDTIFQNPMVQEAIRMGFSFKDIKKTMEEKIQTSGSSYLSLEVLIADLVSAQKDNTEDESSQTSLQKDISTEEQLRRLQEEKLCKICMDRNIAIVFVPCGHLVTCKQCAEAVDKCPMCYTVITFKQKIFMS

[2] = target: T2, CFP-NRAGE (full-length NRAGE) (UniProt Q9ES73 1-775)
T2 construct: NRAGE (MAGE-D1), full length; the cloning of this construct is not described; also called C-NR; source: 293T, co-transfected, in fixed cells
T2 sequence (looked up): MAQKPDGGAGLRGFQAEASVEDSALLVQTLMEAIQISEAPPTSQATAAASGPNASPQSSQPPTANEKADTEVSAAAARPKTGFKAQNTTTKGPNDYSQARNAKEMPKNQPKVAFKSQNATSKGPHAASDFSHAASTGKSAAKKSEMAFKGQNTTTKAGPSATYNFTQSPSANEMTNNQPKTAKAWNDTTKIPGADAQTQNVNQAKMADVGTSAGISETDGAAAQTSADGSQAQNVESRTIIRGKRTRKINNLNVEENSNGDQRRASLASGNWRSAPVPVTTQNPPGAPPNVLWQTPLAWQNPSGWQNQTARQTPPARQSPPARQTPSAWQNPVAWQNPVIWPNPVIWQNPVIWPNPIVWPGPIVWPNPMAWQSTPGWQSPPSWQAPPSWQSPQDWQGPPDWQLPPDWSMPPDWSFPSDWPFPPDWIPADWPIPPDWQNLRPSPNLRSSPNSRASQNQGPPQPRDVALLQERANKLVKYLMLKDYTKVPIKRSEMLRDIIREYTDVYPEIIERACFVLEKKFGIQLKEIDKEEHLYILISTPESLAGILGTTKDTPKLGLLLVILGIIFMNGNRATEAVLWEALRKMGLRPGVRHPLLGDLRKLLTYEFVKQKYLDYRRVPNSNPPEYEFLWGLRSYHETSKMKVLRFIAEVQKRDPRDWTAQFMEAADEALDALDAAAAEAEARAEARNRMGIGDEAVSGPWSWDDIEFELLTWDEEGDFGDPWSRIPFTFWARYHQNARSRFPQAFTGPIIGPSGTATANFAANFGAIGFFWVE

[3] = target: T3, YFP-NRAGE (full-length NRAGE) (UniProt Q9ES73 1-775)
T3 construct: NRAGE (MAGE-D1), full length; the cloning of this construct is not described; also called Y-NR; source: 293T, co-transfected, in fixed cells
T3 sequence (looked up): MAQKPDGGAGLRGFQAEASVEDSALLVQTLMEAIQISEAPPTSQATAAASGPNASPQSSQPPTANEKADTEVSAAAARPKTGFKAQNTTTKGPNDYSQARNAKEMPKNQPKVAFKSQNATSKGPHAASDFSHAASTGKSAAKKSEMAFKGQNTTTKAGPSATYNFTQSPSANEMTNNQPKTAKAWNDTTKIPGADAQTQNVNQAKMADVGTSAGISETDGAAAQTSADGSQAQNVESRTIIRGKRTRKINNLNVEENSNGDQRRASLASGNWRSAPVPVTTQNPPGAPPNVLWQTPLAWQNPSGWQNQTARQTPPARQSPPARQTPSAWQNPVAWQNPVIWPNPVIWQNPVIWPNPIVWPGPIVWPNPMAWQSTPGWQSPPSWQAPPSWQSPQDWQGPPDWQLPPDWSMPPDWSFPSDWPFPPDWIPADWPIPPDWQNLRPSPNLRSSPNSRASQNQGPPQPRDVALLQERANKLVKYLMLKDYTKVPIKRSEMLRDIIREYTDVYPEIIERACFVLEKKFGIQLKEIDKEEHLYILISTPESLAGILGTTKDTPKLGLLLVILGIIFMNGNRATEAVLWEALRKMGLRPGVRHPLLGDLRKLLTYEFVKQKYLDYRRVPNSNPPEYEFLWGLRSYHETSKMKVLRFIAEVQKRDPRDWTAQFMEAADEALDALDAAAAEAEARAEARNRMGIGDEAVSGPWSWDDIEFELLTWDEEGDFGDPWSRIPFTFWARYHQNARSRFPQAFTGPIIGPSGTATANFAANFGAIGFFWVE

[4] = target: T4, EYFP-XIAP (UniProt Q60989 1-496)
T4 construct: also called Y-X; source: 293T, co-transfected, in fixed cells; not shown: EYFP, N-terminal, kept
T4 sequence (Q60989 whole entry): as the sequence (Q60989 whole entry) above

Binder	average peak energy transfer efficiency (FRET) [1]	average peak energy transfer efficiency (FRET) [2]	average peak energy transfer efficiency (FRET) [3]	average peak energy transfer efficiency (FRET) [4]
PPAWQTPPAWQTPPAWQTPPAWQT (four repeats of the final consensus hexapeptide PPAWQT of the NRAGE repeat domain; also called pep-Y; NRAGE peptide DNA-YFP; source: 293T, co-transfected, in fixed cells; not shown: EYFP, C-terminal, kept) [NRAGE peptide-YFP (NRAGE peptide DNA in pEYFP-N1)]	0.34%	0.36%	–	–
PPAWQTPPAWQTPPAWQTPPAWQT (four repeats of the final consensus hexapeptide PPAWQT of the NRAGE repeat domain; also called pep-C; NRAGE peptide DNA-CFP; source: 293T, co-transfected, in fixed cells; not shown: ECFP, C-terminal, kept) [NRAGE peptide-CFP (NRAGE peptide DNA in pECFP-N1)]	–	–	0.41%	0.46%
